Where two headings read alike, the source gives them in different places.
Tests used:
[1] = molecular target: Sos1-X′ peptide (Homo sapiens); test: NMR
[2] = molecular target: Sos1-X′ peptide (Homo sapiens); test: NMR; remark: listed apart in the source

Kd [1]: 4.6 µM | Kd [2]: 4.9 µM
B1: Grb2 N-SH3 2-59, P62993 (protein)
chain: EAIAKYDFKATADDELSFKRGDILKVLNEESDQNWYKAELNGKDGFIPKNYIEMKPHP

Source: paper PMC6934455, “Molecular Dynamics model of peptide-protein conjugation: case study of covalent complex between Sos1 peptide and N-terminal SH3 domain from Grb2” (Scientific Reports, 2019)
